Here are results for eight substances from patent US20250376709A1, “PAPB AS A BIMOIETY-DEPENDENT THIOETHER INSTALLATION TOOL” (UNIVERSITY OF UTAH RESEARCH FOUNDATION, priority 2022, published 2025).

Changes are numbered by the printed parent chain. Square brackets hold non-standard residues; d marks the D form. Ends that are not written are not given here. Where only a bound is given, the exact number is not on record here.

One data set has as its system PapB. The data set can be described thus: Enzymatic reactions of msPapA peptides with PapB (thioether crosslinking, U/HPLC-MS readout). Type of data set: biochemical. The following applies: for substrate converted to crosslinked product: assessed from MS isotopic envelope after PapB; for extent of conversion to crosslinked peptide by PapB (in words): incubation with PapB, SAM and reductant, MS isotopic envelope; for substrate conversion: after 300 s. Here is the method: Assays were conducted in a Coy Laboratories anaerobic chamber with 98% N2/2% H2 atmosphere at room temperature. All reactions contained 0.05 M PIPES·NaOH (pH 7.4), 2 mM DTT, 2.4 mM SAM (enzymatically synthesized and purified as previously described (deGruyter, J. N., et al. Biochem. 2017, 56 (30), 3863-3873)), ˜100-400 μM msPapA variants (concentration determined by peptide dry weight or by spectroscopic analysis in the case of Y19W), and […]-10 μM PapB. Either dithionite (dT) or flavodoxin (FldA), flavodoxin reductase (FPR) and NADPH were used to reduce PapB. For the assays that used chemical reductant, the total concentration was 2 mM dT. For the assays that used the biological reducing system, the mixtures contained 25 μM FldA, 2 μM FPR and 2 mM NADPH. The total volume of the reactions ranged from 0.1 mL for initial screenings to 0.5 mL for MS/MS Collision Induced Dissociation (CID) fragmentation experiments described below. Control reactions in the absence of dT, SAM and PapB were also conducted. Reactions were initiated with the addition of PapB and quenched at times ranging from 15 s to 2 h by the addition of 10% of the reaction volume of 30% (w/v) trichloroacetic acid (TCA, ACS grade). The samples were centrifuged at 16,000×g for 10 min in a microcentrifuge to pellet the precipitated PapB.
The assays were analyzed using either a Vanquish UHPLC with a diode-array detector connected to a Q-Exactive mass spectrometer or an Ultimate 3000 HPLC with a diode-array detector connected to a LTQ OrbiTrap XL mass spectrometer. Each was operated in positive ion mode, the FT analyzer was set to 100,000 resolution, 1 microscan, and 200 ms maximum injection time. Xcalibur software was used to analyze data. A 20 μL aliquot was injected onto a Hypersil GOLD C18 column (2.1 mm×150 mm, 1.9 μm particle size) (Thermo Fisher) pre-equilibrated in 0.1% (v/v) LC-MS Optima TFA (Fisher in LC-MS Optima water (Fisher). Chromatographic steps were carried out at 0.2 mL/min with buffer A containing 0.1% (v/v) TFA in Optima water and buffer B containing Optima grade acetonitrile with 0.1% (v/v) TFA. The separation consisted of washing with 100% A from 0 to 3 min, followed by a linear gradient from 100% to 0% A from 3 to 6 min, washing with 0% A from 6 to 10 min, and reequilibration with 100% A from 10 to 14 min. […]

Another data set concerns T1, Leader-CSAAANDA
T1 sequence: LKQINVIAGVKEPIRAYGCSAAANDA

For a further data set, the system named is T2, Leader-CSDNNAAA
T2 sequence: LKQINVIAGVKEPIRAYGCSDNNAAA

The test system of the next data set is T3, Leader-CDSNNAANA
T3 sequence: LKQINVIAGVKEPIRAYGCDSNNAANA

For a further data set, the system named is T4, Leader-^DDSAN^DCA.
T4 sequence: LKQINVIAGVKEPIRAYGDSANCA

For the next data set, the system named is T5, Leader-CSAANDA.
T5 sequence: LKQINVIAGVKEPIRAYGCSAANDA

The test system of the next data set is T6, leader-^DCSANDA.
T6 sequence: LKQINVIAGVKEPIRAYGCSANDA

The subject of data set [1] is T7, minimal substrate PapA (msPapA).
T7 sequence: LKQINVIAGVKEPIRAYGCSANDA

The next data set concerns T8, leader-^DCSAN^DDA.
T8 sequence: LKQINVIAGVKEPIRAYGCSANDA

A further data set has as its system T9, Leader-CSNDAAA.
T9 sequence: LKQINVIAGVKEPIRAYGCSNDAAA

The subject of a further data set is T10, Leader-DSAN^DCA.
T10 sequence: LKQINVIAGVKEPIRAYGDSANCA

The test system of a further data set is T11, Leader-^DDSANCA.
T11 sequence: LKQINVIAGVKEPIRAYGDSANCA

A further data set concerns T12, Y17W msPapA.
T12 sequence: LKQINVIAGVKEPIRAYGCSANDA

The subject of another data set is T13, Leader-AAAASACDAADA
T13 sequence: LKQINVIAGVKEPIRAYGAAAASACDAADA

For another data set, the system named is T14, Leader-CSAAAANDA
T14 sequence: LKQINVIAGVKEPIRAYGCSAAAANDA

A further data set relates to T15, Leader-DSANCA.
T15 sequence: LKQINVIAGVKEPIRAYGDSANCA

The subject of the next data set is T16, Leader-AAACSAADAADA
T16 sequence: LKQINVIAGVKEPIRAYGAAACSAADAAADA

For a further data set, the system named is T17, leader-CSAN^DDA.
T17 sequence: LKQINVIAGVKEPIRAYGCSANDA

A further data set concerns T18, Leader-AAACSACDAADA
T18 sequence: T13 sequence with A22C

The subject of a further data set is T19, Leader-AAACSANDA
T19 sequence: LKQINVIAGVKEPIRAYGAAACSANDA

A further data set has as its system T20, Leader-AAACSANDACSANDA
T20 sequence: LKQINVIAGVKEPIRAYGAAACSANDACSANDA

In the case of “LKQINVIAGVKEPIRAYGENLYFQ^DFCF^DWKTET [octreotide analog]”, the “substrate converted to crosslinked product” value in the data set with PapB was around 75%.

Consider “LKQINVIAGVKEPIRAYG^DCSANDA (LKQINVIAGVKEPIRAYG[dC]SANDA) [leader-^DCSANDA]”, for which the “extent of conversion to crosslinked peptide by PapB (in words)” value (“extent of conversion” below) in the data set on PapB is reported as “full conversion”.

With “LKQINVIAGVKEPIRAYGCSANDA [msPapA, reference compound]”, the “kinetics with dT relative to biological reducing system” value in the data set with PapB (430 nM PapB, 191 μM peptide) was “roughly 3 fold”. For the same substance, the substrate conversion with PapB (biological reducing system (FldA/FPR/NADPH)) and in the data set with PapB (chemical reducing system (dT)) was 100% each time. The “turnover number (approximation of kcat for PapB)” value in the data set with PapB (dithionite (dT) as reductant, 430 nM PapB, 191 μM peptide, linear portion of curve, FIG. 5 names Y17W msPapA) worked out at 7.4 ± 0.1 s⁻¹. Further, in the data set on PapB, the “extent of conversion” value is “complete conversion”.

On to PapB, for which the “thioether crosslinking (loss of 2 Da, MS)” value is “the reactions with 1-5 intervening residues appear to go to completion” in the data set with Leader-CSAAANDA; “the reactions with 1-5 intervening residues appear to go to completion” in the data set on Leader-CSDNNAAA; “CX0D (FIG. 8B) and CX6D (FIG. 8C) did not fully react--suggesting that PapB does not processes these motifs efficiently” in the data set on Leader-CDSNNAANA; “the reactions with 1-5 intervening residues appear to go to completion” in the data set with Leader-CSAANDA; “full conversion to the crosslinked peptide is seen, as evidenced by the loss of 2 Da” in the data set with leader-^DCSANDA; “the reactions with 1-5 intervening residues appear to go to completion” in data set [1]. In addition, the “thioether crosslinking (loss of 2 Da, MS)” value with Leader-CSNDAAA was “the reactions with 1-5 intervening residues appear to go to completion”; in the data set with Leader-AAAASACDAADA, “all the peptides that were examined were efficiently crosslinked by the enzyme”; in the data set on Leader-CSAAAANDA, “CX0D (FIG. 8B) and CX6D (FIG. 8C) did not fully react--suggesting that PapB does not processes these motifs efficiently”; in the data set on Leader-AAACSAADAADA, “all the peptides that were examined were efficiently crosslinked by the enzyme”; in the data set with leader-CSAN^DDA, “significant substrate turnover is observed as well, but the conversion is not complete”; in the data set on Leader-AAACSANDA, “all the peptides that were examined were efficiently crosslinked by the enzyme”. The “thioether crosslinking (MS)” value is recorded as “we were unable to observe any crosslinked product with the transposed peptides, either with L- or D-amino acids” in the data set on Leader-^DDSAN^DCA; “we were unable to observe any crosslinked product with the transposed peptides, either with L- or D-amino acids” in the data set on Leader-DSAN^DCA; “we were unable to observe any crosslinked product with the transposed peptides, either with L- or D-amino acids” in the data set with Leader-^DDSANCA; “we were unable to observe any crosslinked product with the transposed peptides, either with L- or D-amino acids” with Leader-DSANCA. In addition, the “thioether crosslinking (loss of 2 Da, HR-MS)” value in [1] was “complete conversion of msPapA to a singly crosslinked peptide is routinely observed using 0.1 nmol PapB and 20 mmol msPapA in 5 min”. Further, the “substrate converted to crosslinked product (MS)” value in the data set with leader-^DCSAN^DDA is “at least ˜15% of the substrate is converted to product”. Also, the “turnover number with dithionite (approximation of kcat)” value with Y17W msPapA was 7.4±0.1 s^-1 with dT. The “turnover number with the biological reducing system FldA/FPR/NADPH (approximation of kcat)” value in the data set on Y17W msPapA is on record as 2.6=0.2 s^-1 are estimated with the biological reducing system. Also, the “thioether crosslinking (loss of 4 Da, MS)” value in the data set on Leader-AAACSACDAADA and with Leader-AAACSANDACSANDA was “all the peptides that were examined were efficiently crosslinked by the enzyme” in each case.

Regarding LKQINVIAGVKEPIRAYGCSAAAANDA [CX6D], the “extent of conversion” value with PapB is recorded as “did not fully react”.

“LKQINVIAGVKEPIRAYGCSAN^DDA [leader-CSAN^DDA]”: the “extent of conversion” value with PapB is listed as “conversion is not complete”.

As for “LKQINVIAGVKEPIRAYGPCSAN^DDA [leader-^DCSAN^DDA]”, in the data set with PapB, the “substrate converted to crosslinked product” value was at least 15% and the “extent of conversion” value was “processed inefficiently”.

On to LKQINVIAGVKEPIRAYGCDSNNAANA [CX0D], for which the “extent of conversion” value in the data set with PapB is “did not fully react”.
